From article PMC12478261

T1: mCRP (monomeric C-reactive protein) (UniProt P02741 19-224)
T1 sequence: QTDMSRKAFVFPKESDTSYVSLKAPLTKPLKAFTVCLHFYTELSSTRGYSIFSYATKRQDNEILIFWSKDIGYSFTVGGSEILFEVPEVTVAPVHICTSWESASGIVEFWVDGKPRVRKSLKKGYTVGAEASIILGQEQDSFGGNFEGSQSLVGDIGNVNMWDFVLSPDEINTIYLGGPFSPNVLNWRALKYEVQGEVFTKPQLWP

T2: nCRP (native pentameric C-reactive protein) (UniProt P02741 19-224)
T2 sequence: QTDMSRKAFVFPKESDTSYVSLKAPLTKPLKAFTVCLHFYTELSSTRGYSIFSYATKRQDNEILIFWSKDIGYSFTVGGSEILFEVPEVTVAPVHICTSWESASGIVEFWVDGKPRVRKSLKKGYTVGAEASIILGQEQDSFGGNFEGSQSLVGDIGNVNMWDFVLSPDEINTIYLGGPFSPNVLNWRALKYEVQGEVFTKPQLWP


How the values were obtained:
[1] = molecular target: T1, mCRP (monomeric C-reactive protein); experiment: SPR
[2] = molecular target: T2, nCRP (native pentameric C-reactive …); experiment: bead pull-down, Qubit ssDNA quantification

| Binder | Kd [1] | binding result [2] |
| --- | --- | --- |
| CCAATGGCCCTAGGGCTGCAAATCGCTGCC (ssDNA) [ApmCRP3] | 400 nM | – |
| TTGACCCTTTAAGGTCGTCCGGAAACGGGC (ssDNA) [ApmCRP4] | – | no binding |
